From patent US20190309284A1, “METHODS AND KITS FOR DYNAMIC TARGETED HYPERMUTATION” (Massachusetts Institute of Technology, priority 2018, published 2019)

Columns and labels:
[1] = promoter strength, Registry of Standard Biological Parts (Anderson collection); cited from earlier work
E. coli = test: Cell viability (live ampicillin resistant cells) in mutation assay; type: cell-based; conditions: 24 h growth
Experimental: (§1) Mutation assay: To test mutagenesis rates, the control and mutagenic strains (Strep^R) carrying reporter plasmids (Amp^R) were streaked out on LB agar with 100 μg/mL streptomycin and 100 μg/mL ampicillin and grown at 37° C. for 24 hours. Then single colonies were picked in triplicate for each sample and grown in 5 mL LB with 100 μg/mL streptomycin,100 μg/mL ampicillin and 25 mM arabinose (with 10 μg/mL chloramphenicol if the strain contains MP6) at 37° C., 250 r.p.m. for 24 hours. Then 1 mL aliquots of each overnight were pelleted at 6000×g for 3 minutes and resuspended in 1 mL LB to remove arabinose. Then 50 μL of each resuspension was plated on LB agar plates with 50 μg/mL tetrazolium chloride and 200 μg/mL kanamycin, 20 μg/mL tetracycline, 100 μg/mL fosfomycin or 100 μg/mL rifampicin unless otherwise stated. 50 μL of a 100,000-fold dilution of each culture was also plated on LB agar with 100 μg/mL streptomycin, 100 μg/mL ampicillin and 50 μg/mL tetrazolium chloride. After incubating the plates at 37° C. for 48 hours, they were imaged by inverting the plates onto transparencies and scanning on a document scanner at a resolution of 400 d.p.i. The colonies were then counted using the software OpenCFU (3.9.0) (Geissmann Q., PLoS One. 2013; 8(2): e54072), with minimum colony radius set to 3, the maximum colony radius set to 50 and the regular threshold set to 4.
Mutation Assay: To assess mutagenesis rates, the control (Δung, rApo1, drApo1, and drApo1−T7; TABLE 8) and mutagenic strains (MutaT7 and MP6; TABLE 8) (Strep^R) carrying reporter plasmids (AmpR) were streaked on LB agar with 100 μg/mL streptomycin and 100 μg/mL ampicillin and grown at 37° C. for 24 h in order to obtain clones. Single colonies were picked in triplicate for each sample and used to inoculate 5 mL LB with 100 μg/mL streptomycin, 100 μg/mL ampicillin, and 25 mM arabinose (with 10 μg/mL chloramphenicol for the MP6 strain, TABLE 8), then shaken at 250 r.p.m. and 37° C. for 24 h to accumulate mutations during growth. […]

E. coli genome [2] = test: Off-target mutagenesis, rifampicin resistance assay; type: cell-based; conditions: 24 h growth
Experimental: as §1
(§2) Mutation Assay: To assess mutagenesis rates, the control (Δung, rApo1, drApo1, and drApo1−T7; TABLE 8) and mutagenic strains (MutaT7 and MP6; TABLE 8) (Strep^R) carrying reporter plasmids (AmpR) were streaked on LB agar with 100 μg/mL streptomycin and 100 μg/mL ampicillin and grown at 37° C. for 24 h in order to obtain clones. Single colonies were picked in triplicate for each sample and used to inoculate 5 mL LB with 100 μg/mL streptomycin, 100 μg/mL ampicillin, and 25 mM arabinose (with 10 μg/mL chloramphenicol for the MP6 strain, TABLE 8), then shaken at 250 r.p.m. and 37° C. for 24 h to accumulate mutations during growth. 1 mL aliquots of each culture were pelleted at 6000×g for 3 min and resuspended in 1 mL LB to remove arabinose. Each resuspension was plated on LB agar plates with 50 μg/mL tetrazolium chloride (a metabolic contrast dye for visualizing colonies) and the antibiotics indicated below to analyze mutation rates and viability: • 50 μL of a 100,000-fold dilution of each resuspension was plated on LB agar with 100 μg/mL streptomycin, 100 μg/mL ampicillin, and 50 μg/mL tetrazolium chloride. For samples from the MP6 strain, owing to lower growth of that strain, 50 μL of a 10,000-fold dilution of each resuspension was plated to obtain a more accurate count. The colony counts from these plates were used to calculate the cell viability (i.e., the number of live, ampicillin resistant cells) in CFU/mL for each sample (FIG. 13D). • 50 μL of each resuspension was plated on LB agar plates with 200 μg/mL kanamycin and 50 μg/mL tetrazolium chloride. The colony counts from these plates were used to calculate the number of kanamycin resistant mutants in CFU/mL for each sample (FIG. 13E). The number of kanamycin resistant mutants in CFU/mL was divided by the number of live ampicillin resistant cells in CFU/mL for each sample to obtain the kanamycin resistant mutation frequency (FIG. 13B). • 50 μL of each resuspension was plated on LB agar plates with 20 μg/mL tetracycline and 50 μg/mL tetrazolium chloride. The colony counts from these plates were used to calculate the number of tetracycline resistant mutants in CFU/mL for each sample. The number of tetracycline resistant mutants in CFU/mL was divided by the number of live ampicillin resistant cells in CFU/mL for each sample to obtain the tetracycline resistant mutation frequency (FIG. 13B). • 50 μL of each resuspension was plated on LB agar plates with 100 μg/mL rifampicin and 50 μg/mL tetrazolium chloride. […]

[3] = tested on: Tet^R gene with inactive ACG start codon downstream of Kan^R on reporter plasmid; test: Start codon reversion mutation assay, tetracycline resistance (downstream of target); type: cell-based, E. coli; conditions: 24 h growth
Experimental: as §1, §2

[4] = tested on: Kan^R gene with ACG in place of ATG start codon on reporter plasmid; test: Start codon reversion mutation assay, kanamycin resistance (on-target); type: cell-based, E. coli; conditions: 24 h growth
Experimental: as §1, §2

E. coli genome [5] = test: Off-target mutagenesis, fosfomycin resistance assay; type: cell-based; conditions: 24 h growth
Experimental: as §1, §2

[6] = reporter plasmid No T7 promoter + filler DNA
[7] = reporter plasmid T7 promoter + filler DNA
[8] = reporter plasmid T7 promoter + terminator array

BBa_J23100: Anderson collection promoter, SEQ ID NO: 2 (DNA TTGACGGCTAGCTCAGTCCTAGGTACAGTGCTAGC; listed as DNA, chemistry not fully specified)
Measured Strength [1]: 1

BBa_J23101: Anderson collection promoter, SEQ ID NO: 3 (DNA TTTACAGCTAGCTCAGTCCTAGGTATTATGCTAGC; listed as DNA, chemistry not fully specified)
Measured Strength [1]: 0.70

BBa_J23102: Anderson collection promoter, SEQ ID NO: 4 (DNA TTGACAGCTAGCTCAGTCCTAGGTACTGTGCTAGC; listed as DNA, chemistry not fully specified)
Measured Strength [1]: 0.86

BBa_J23103: Anderson collection promoter, SEQ ID NO: 5 (DNA CTGATAGCTAGCTCAGTCCTAGGGATTATGCTAGC; listed as DNA, chemistry not fully specified)
Measured Strength [1]: 0.01

BBa_J23104: Anderson collection promoter, SEQ ID NO: 6 (DNA TTGACAGCTAGCTCAGTCCTAGGTATTGTGCTAGC; listed as DNA, chemistry not fully specified)
Measured Strength [1]: 0.72

BBa_J23105: Anderson collection promoter, SEQ ID NO: 7 (DNA TTTACGGCTAGCTCAGTCCTAGGTACTATGCTAGC; listed as DNA, chemistry not fully specified)
Measured Strength [1]: 0.24

BBa_J23106: Anderson collection promoter, SEQ ID NO: 8 (DNA TTTACGGCTAGCTCAGTCCTAGGTATAGTGCTAGC; listed as DNA, chemistry not fully specified)
Measured Strength [1]: 0.47

BBa_J23107: Anderson collection promoter, SEQ ID NO: 9 (DNA TTTACGGCTAGCTCAGCCCTAGGTATTATGCTAGC; listed as DNA, chemistry not fully specified)
Measured Strength [1]: 0.36

BBa_J23108: Anderson collection promoter, SEQ ID NO: 10 (DNA CTGACAGCTAGCTCAGTCCTAGGTATAATGCTAGC; listed as DNA, chemistry not fully specified)
Measured Strength [1]: 0.51

BBa_J23109: Anderson collection promoter, SEQ ID NO: 11 (DNA TTTACAGCTAGCTCAGTCCTAGGGACTGTGCTAGC; listed as DNA, chemistry not fully specified)
Measured Strength [1]: 0.04

BBa_J23110: Anderson collection promoter, SEQ ID NO: 12 (DNA TTTACGGCTAGCTCAGTCCTAGGTACAATGCTAGC; listed as DNA, chemistry not fully specified)
Measured Strength [1]: 0.33

BBa_J23111: Anderson collection promoter, SEQ ID NO: 13 (DNA TTGACGGCTAGCTCAGTCCTAGGTATAGTGCTAGC; listed as DNA, chemistry not fully specified)
Measured Strength [1]: 0.58

BBa_J23112: Anderson collection promoter, SEQ ID NO: 14 (DNA CTGATAGCTAGCTCAGTCCTAGGGATTATGCTAGC; listed as DNA, chemistry not fully specified)
Measured Strength [1]: 0.00

BBa_J23113: Anderson collection promoter, SEQ ID NO: 15 (DNA CTGATGGCTAGCTCAGTCCTAGGGATTATGCTAGC; listed as DNA, chemistry not fully specified)
Measured Strength [1]: 0.01

BBa_J23114: Anderson collection promoter, SEQ ID NO: 16 (DNA TTTATGGCTAGCTCAGTCCTAGGTACAATGCTAGC; listed as DNA, chemistry not fully specified)
Measured Strength [1]: 0.10

BBa_J23115: Anderson collection promoter, SEQ ID NO: 17 (DNA TTTATAGCTAGCTCAGCCCTTGGTACAATGCTAGC; listed as DNA, chemistry not fully specified)
Measured Strength [1]: 0.15

BBa_J23116: Anderson collection promoter, SEQ ID NO: 18 (DNA TTGACAGCTAGCTCAGTCCTAGGGACTATGCTAGC; listed as DNA, chemistry not fully specified)
Measured Strength [1]: 0.16

BBa_J23117: Anderson collection promoter, SEQ ID NO: 19 (DNA TTGACAGCTAGCTCAGTCCTAGGGATTGTGCTAGC; listed as DNA, chemistry not fully specified)
Measured Strength [1]: 0.06

BBa_J23118: Anderson collection promoter, SEQ ID NO: 20 (DNA TTGACGGCTAGCTCAGTCCTAGGTATTGTGCTAGC; listed as DNA, chemistry not fully specified)
Measured Strength [1]: 0.56

B1: drApoI (protein, UniProt P38483 1-229, looked up, variant E63Q)
C->U-editing enzyme APOBEC-1: MSSETGPVAVDPTLRRRIEPHEFEVFFDPRELRKETCLLYEINWGGRHSIWRHTSQNTNKHVQVNFIEKFTTERYFCPNTRCSITWFLSWSPCGECSRAITEFLSRYPHVTLFIYIARLYHHADPRNRQGLRDLISSGVTIQIMTEQESGYCWRNFVNYSPSNEAHWPRYPHLWVRLYVLELYCIILGLPPCLNILRRKQPQLTFFTIALQSCHYQRLPPHILWATGLK
Amp resistant CFU/mL (cell viability) (E. coli; [6]): 1.6E+9 CFU/mL | Amp resistant CFU/mL (cell viability) (E. coli; [7]): 1.3E+9 CFU/mL | Amp resistant CFU/mL (cell viability) (E. coli; [8]): 1.8E+9 CFU/mL | Rif resistance Frequency (E. coli genome [2]; [6]): 4.5E−7 | Rif resistant CFU/mL (E. coli genome [2]; [6]): 7.6E+2 CFU/mL | Rif resistance Frequency (E. coli genome [2]; [7]): 3.0E−7 | Rif resistant CFU/mL (E. coli genome [2]; [7]): 4.0E+2 CFU/mL | Rif resistance Frequency (E. coli genome [2]; [8]): 3.4E−7 | Rif resistant CFU/mL (E. coli genome [2]; [8]): 5.9E+2 CFU/mL | Tet resistance Frequency [3, 6]: 1.1E−7 | Tet resistant CFU/mL [3, 6]: 1.8E+2 CFU/mL | Tet resistance Frequency [3, 7]: 4.6E−7 | Tet resistant CFU/mL [3, 7]: 6.3E+2 CFU/mL | Tet resistance Frequency [3, 8]: 2.1E−7 | Tet resistant CFU/mL [3, 8]: 3.7E+2 CFU/mL | Kan resistance Frequency [4, 6]: 3.8E−8 | Kan resistant CFU/mL [4, 6]: 6.0E+1 CFU/mL | Kan resistance Frequency [4, 7]: 5.2E−7 | Kan resistant CFU/mL [4, 7]: 6.5E+2 CFU/mL | Kan resistance Frequency [4, 8]: 6.6E−7 | Kan resistant CFU/mL [4, 8]: 1.2E+3 CFU/mL | Fos resistance Frequency (E. coli genome [5]; [6]): 2.0E−6 | Fos resistant CFU/mL (E. coli genome [5]; [6]): 3.3E+3 CFU/mL | Fos resistance Frequency (E. coli genome [5]; [7]): 2.7E−6 | Fos resistant CFU/mL (E. coli genome [5]; [7]): 3.5E+3 CFU/mL | Fos resistance Frequency (E. coli genome [5]; [8]): 1.9E−6 | Fos resistant CFU/mL (E. coli genome [5]; [8]): 3.4E+3 CFU/mL
